Where “and” joins values, the source holds several entries; their conditions need not be identical. Identical values can stand only once.
How the values were obtained:
Pol I = Pol I (Bacillus subtilis, UniProt O34996); settings: 0.15 M KCl; cited from earlier work
Pol III-L = Pol III-L (Bacillus subtilis, UniProt P13267); settings: Pol III-L, 0.15 M KCl; cited from earlier work
Pol II = settings: 0.15 M KCl; cited from earlier work
[1] = biological target: Escherichia coli DNA polymerase III core (Escherichia coli) (UniProt P10443); experiment: cell-based or functional assay
Chain of Escherichia coli DNA polymerase III core (Escherichia coli) (P10443 whole entry, chain 1 of 3): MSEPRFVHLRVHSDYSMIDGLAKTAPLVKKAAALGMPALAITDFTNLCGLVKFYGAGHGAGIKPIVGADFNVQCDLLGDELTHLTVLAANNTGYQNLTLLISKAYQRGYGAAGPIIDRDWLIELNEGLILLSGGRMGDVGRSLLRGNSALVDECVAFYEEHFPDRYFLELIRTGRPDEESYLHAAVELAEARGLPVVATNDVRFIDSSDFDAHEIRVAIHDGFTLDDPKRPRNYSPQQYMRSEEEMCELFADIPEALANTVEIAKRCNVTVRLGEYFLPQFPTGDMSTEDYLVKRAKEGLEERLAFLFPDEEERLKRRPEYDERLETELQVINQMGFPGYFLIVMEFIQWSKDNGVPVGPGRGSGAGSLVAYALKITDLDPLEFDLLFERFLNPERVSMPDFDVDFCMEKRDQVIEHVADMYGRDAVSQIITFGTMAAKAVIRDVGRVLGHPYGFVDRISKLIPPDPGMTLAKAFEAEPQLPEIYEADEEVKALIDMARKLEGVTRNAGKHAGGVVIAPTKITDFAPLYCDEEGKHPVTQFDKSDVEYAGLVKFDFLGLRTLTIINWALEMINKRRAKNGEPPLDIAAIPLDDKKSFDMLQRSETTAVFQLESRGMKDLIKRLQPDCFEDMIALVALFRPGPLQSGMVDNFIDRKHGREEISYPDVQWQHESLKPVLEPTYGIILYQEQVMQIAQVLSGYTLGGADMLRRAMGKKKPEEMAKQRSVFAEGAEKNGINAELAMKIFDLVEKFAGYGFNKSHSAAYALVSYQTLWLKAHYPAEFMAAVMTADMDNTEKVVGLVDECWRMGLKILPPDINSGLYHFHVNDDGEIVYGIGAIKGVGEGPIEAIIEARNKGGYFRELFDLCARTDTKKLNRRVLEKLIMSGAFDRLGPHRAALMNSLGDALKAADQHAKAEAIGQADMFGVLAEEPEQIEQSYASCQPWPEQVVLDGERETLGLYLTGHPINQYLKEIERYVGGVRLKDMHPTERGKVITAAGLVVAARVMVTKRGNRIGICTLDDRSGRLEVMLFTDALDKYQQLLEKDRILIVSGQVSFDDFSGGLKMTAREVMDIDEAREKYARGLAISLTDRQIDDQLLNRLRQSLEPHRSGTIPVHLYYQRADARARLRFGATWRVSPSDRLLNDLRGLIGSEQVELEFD
Chain of Escherichia coli DNA polymerase III core (Escherichia coli) (P03007 whole entry, chain 2 of 3, further chain): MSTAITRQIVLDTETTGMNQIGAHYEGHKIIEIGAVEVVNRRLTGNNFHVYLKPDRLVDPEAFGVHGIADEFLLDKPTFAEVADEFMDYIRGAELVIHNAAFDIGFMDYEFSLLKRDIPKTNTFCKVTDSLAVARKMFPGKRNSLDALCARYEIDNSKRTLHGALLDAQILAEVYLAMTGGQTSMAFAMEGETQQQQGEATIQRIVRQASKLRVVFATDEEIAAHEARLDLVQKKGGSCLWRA
Chain of Escherichia coli DNA polymerase III core (Escherichia coli) (P0ABS8 whole entry, chain 3 of 3, further chain): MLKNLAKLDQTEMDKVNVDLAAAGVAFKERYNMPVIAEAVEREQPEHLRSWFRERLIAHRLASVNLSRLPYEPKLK

[2] = test system: singly primed M13mp18 ssDNA; experiment: Time course of primer extension on singly primed M13mp18 ssDNA, DnaE polymerase; type: biochemical; settings: saturating concentration of DnaE
Method: The S. pyogenes DnaE (α-small) polymerase is more homologous to E. coli a than S. pyogenes PolC. Thus, it seems reasonable to expect that the DnaE polymerase may also function with the β clamp (FIGS. 21A-B). To test DnaE for function with τδδ′ and β, replication reactions contained 70 ng (25 fmol) of 30-mer singly primed M13 mp18 ssDNA, 0.82 μg of S. pyogenes SSB, and 3.3 ng-300 ng of DnaE (25 fmol −2.3 pmol) in 23.5 μl of 20 mM Tris-HCl (pH 7.5), 4% glycerol, 0.1 mM EDTA, 5 mM dithiothreitol (DTT), 40 μg/ml BSA, 2 mM ATP, 8 mM MgCl2, and 60 μM each of dGTP and dCTP. When present, reactions included 43.3 ng of β and 10 ng of τδδ′. Reactions were preincubated for 3 min at 37° C., and then NaCl was added to 40 mM followed by another 2 min at 37° C. DNA synthesis was initiated upon addition of 1.5 μl of 1.5 mM dATP, 0.5 mM [α^32P]-dTTP (specific activity 2,000-4,000 cpm/pmol). Aliquots of 25 μl were removed at the indicated times and quenched with an equal volume (25 μl) of 1% SDS, 40 mM EDTA. One-half of the quenched reaction was analyzed for total deoxynucleotide incorporation using DE81 filter paper and the other half was analyzed on a 0.8% neutral agarose gel. The effect of TMAU was also examined, in which 100 μM TMAU in DMSO (2% DMSO final concentration) was present. In this case, replication was allowed to proceed for 1 min before being quenched with […] of 1% SDS, 40 mM EDTA. […]

[3] = biological target: Staphylococcus aureus Pol III-L (α-large, polC gene product) (Staphylococcus aureus) (UniProt P0C1P9); experiment: cell-based or functional assay
Chain of Staphylococcus aureus Pol III-L (α-large, polC gene product) (Staphylococcus aureus) (P0C1P9 whole entry): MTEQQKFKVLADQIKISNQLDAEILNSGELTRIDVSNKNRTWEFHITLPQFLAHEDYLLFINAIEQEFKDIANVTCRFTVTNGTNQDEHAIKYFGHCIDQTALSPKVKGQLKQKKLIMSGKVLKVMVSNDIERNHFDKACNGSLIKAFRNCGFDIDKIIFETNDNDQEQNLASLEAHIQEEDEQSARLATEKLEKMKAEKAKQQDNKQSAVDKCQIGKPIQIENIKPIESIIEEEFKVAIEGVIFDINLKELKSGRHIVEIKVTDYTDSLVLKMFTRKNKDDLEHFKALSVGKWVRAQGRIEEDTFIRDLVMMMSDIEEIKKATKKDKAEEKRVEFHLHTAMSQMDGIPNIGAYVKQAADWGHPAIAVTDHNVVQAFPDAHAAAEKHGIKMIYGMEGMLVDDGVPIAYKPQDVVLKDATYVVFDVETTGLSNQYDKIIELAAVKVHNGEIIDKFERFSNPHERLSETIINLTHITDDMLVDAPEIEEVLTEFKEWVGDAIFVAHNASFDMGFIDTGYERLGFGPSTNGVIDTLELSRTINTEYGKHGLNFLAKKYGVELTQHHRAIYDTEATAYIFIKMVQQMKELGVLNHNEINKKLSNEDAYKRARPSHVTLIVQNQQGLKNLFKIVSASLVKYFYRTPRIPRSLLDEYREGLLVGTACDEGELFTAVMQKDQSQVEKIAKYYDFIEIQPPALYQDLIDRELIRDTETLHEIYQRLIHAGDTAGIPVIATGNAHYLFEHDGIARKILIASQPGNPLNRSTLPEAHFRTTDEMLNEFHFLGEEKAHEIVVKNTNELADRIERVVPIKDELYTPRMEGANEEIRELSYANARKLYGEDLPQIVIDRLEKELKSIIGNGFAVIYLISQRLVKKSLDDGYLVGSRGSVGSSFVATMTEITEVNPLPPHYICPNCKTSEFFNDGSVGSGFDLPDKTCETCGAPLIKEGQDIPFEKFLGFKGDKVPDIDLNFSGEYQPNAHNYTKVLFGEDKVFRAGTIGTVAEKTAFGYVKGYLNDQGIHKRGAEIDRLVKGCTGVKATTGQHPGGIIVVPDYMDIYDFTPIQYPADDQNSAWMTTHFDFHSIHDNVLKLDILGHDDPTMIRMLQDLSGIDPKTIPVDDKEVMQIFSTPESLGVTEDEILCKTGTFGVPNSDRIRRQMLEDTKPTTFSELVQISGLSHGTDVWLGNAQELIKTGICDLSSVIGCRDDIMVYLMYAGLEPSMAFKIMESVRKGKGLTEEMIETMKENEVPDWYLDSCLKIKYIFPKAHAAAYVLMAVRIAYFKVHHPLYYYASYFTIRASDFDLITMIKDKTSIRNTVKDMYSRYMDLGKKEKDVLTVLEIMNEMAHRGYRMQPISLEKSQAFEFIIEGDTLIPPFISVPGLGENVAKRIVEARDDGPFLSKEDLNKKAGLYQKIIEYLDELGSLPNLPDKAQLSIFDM

Chain of Pol III-L (P13267 whole entry): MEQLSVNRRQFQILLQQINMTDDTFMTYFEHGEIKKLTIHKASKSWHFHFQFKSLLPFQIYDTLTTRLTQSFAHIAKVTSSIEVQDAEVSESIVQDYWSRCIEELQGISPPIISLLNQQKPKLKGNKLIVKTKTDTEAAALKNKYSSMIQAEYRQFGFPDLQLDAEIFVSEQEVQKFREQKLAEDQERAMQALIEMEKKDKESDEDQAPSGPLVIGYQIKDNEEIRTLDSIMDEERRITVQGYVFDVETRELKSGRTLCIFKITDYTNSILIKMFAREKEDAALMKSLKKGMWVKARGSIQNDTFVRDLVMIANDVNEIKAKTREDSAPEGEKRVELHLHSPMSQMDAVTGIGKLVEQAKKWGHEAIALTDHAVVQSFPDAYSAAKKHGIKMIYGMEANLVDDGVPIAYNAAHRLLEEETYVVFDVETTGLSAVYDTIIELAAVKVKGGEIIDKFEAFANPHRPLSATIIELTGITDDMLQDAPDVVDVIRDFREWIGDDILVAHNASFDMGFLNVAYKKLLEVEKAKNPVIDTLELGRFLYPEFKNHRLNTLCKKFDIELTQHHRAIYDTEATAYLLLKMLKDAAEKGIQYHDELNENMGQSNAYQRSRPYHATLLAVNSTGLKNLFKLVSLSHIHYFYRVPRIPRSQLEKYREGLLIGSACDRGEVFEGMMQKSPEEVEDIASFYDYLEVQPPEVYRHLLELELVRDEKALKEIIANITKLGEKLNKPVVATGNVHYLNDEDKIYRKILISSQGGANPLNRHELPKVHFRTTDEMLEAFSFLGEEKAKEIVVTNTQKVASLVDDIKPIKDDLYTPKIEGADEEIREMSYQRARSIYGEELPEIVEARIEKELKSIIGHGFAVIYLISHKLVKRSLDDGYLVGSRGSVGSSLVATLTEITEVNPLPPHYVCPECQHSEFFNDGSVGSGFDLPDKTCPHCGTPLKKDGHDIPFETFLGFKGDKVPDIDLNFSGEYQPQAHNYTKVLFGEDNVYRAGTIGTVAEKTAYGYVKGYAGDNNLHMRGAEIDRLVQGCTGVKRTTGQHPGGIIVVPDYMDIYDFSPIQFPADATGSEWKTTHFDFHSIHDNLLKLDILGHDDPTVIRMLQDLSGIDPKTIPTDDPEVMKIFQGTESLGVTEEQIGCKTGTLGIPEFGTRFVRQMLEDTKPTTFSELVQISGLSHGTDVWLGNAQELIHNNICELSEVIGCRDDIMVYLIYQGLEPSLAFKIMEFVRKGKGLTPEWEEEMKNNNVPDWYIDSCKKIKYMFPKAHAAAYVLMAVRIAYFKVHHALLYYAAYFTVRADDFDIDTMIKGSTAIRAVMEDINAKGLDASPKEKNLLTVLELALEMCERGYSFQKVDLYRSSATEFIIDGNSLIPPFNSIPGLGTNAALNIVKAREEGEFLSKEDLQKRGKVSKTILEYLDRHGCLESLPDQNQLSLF

For `[Cl-].[K+]` [KCl], the “Expected characteristics: inhibition by 0.15 M KCl” value (Pol I) is listed as “not inhibited (Not inhibited is defined as greater than 75% remaining activity)”, the “Expected characteristics: inhibition by 0.15 M KCl” value (Pol III-L) is listed as “not inhibited (Not inhibited is defined as greater than 75% remaining activity)” and the “Expected characteristics: inhibition by 0.15 M KCl” value (Pol II) is listed as “not inhibited (Not inhibited is defined as greater than 75% remaining activity)”.

Molecule “Escherichia coli beta subunit of DNA polymerase III holoenzyme (from UniProt P0A988 1-366)” has a Total DNA synthesis on polydA-oligodT, lane 6 (E. coli Pol III core with E. coli beta; lane 5 without beta 0.97 pmol) [1] of 28.1 pmol and a stimulation of DNA synthesis by E. coli core on linear polydA-oligodT [1] of over 10 fold.

B1: DnaE polymerase: S. pyogenes DnaE (α-small) polymerase encoded by dnaE, SEQ. ID. No. 20 (protein)
chain: MFAQLDTKTVYSFMDSLIDLNHYFERAKQFGYHTIGIMDKDNLYGAYHFIKGCQKNGLQPVLGLEIEILYQERQVLLNLIAQNTQGYHQLLKISTAKMSGKLHMDYFCQHLEGIAVIIPSKGWSDTLVVPFDYYMGVDQYTDLSHMDSKRQLIPLRTVRYFAQDDMETLHMLHAIRDNLSLAETPVVESDQELADCQQLTAFYQTHCPQALQNLEDLVSGIYYDFDTNLKLPHFNRDKSAKQELQDLTEAGLKEKGLWKEPYQSRLLHELVIISDMGFDDYFLIVWDLLRFGRSKGYYMGMGRGSAAGSLVAYALNITGIDPVQHDLLFERFLNKERYSMPDIDIDLPDIYRSEFLRYVRNRYGSDHSAQIVTFSTFGPKQAIRDVFKRFGVPEYELTNLTKKIGFKDSLATVYEKSISFRQVINSRTEFQKAFAIAKRIEGNPRQTSIHAAGIVMSDDALTNHIPLKSGDDMMITQYDAHAVEANGLLKMDFLGLRNLTFVQKMQEKVAKDYGCQIDITAIDLEDPQTLALFAKGDTKGIFQFEQNGAINLLKRIKPQRFEEIVATTSLNRPGASDYTTNFIKRREGQEKIDLIDPVIAPILEPTYGIMLYQEQVMQIAQVYAGFTLGKADLLRRAMSKKNLQEMQKMEEDFIASAKHLGRAEETARGLFKRMEKFAGYGFNRSHAFAYSALAFQLAYFKAHYPAVFYDIMMNYSSSDYITDALESDFQVAQVTINSIPYTDKIEASKIYMGLKNIKGLPRDFAYWIIEQRPFNSVEDFLTRTPEKYQKKVFLEPLIKIGLFDCFEPNRKKILDNLDGLLVFVNELGSLFSDSSFSWVDTKDYSVTEKYSLEQEIVGVGMSKHPLIDIAEKSTQTFTPISQLVKESEAVVLIQIDSIRIIRTKTSGQQMAFLSVNDTKKKLDVTLFPQEYAIYKDQLKEGEFYYLKGRIKERDHRLQMVCQQVQMAISQKYWLLVENHQFDSQISEILGAFPGTTPVVIHYQKNKETIALTKIQVTENLKEKLRPFVLKTVFR
In the case of B1, the “Speed of primer extension” value [2] is reported as “at least 60 nucleotides/s” and the “Time to complete M13mp18 primed ssDNA template” value ([2]; absence of β, presence of τδδ′) is reported as at most 2 min.

B2: Staphylococcus aureus beta subunit (dnaN gene product) (protein)
chain: MMEFTIKRDYFITQLNDTLKAISPRTTLPILTGIKIDAKEHEVILTGSDSEISIEITIPKTVDGEDIVNISETGSVVLPGRFFVDIIKKLPGKDVKLSTNEQFQTLITSGHSEFNLSGLDPDQYPLLPQVSRDDAIQLSVKVLKNVIAQTNFAVSTSETRPVLTGVNWLIQENELICTATDSHRLAVRKLQLEDVSENKNVIIPGKALAELNKIMSDNEEDIDIFFASNQVLFKVGNVNFISRLLEGHYPDTTRLFPENYEIKLSIDNGEFYHAIDRASLLAREGGNNVIKLSTGDDVVELSSTSPEIGTVKEEVDANDVEGGSLKISFNSKYMMDALKAIDNDEVEVEFFGTMKPFILKPKGDDSVTQLILPIRTY
B2 gave a Total DNA synthesis on polydA-oligodT, lane 4 (E. coli Pol III core with S. aureus beta; lane 3 without beta 5.1 pmol) [1] of 35.5 pmol, a stimulation of DNA synthesis by E. coli core on linear polydA-oligodT [1] of 5 fold and a Total DNA synthesis on polydA-oligodT, lane 2 (Pol III-L with S. aureus beta; lane 1 without beta 4.4 pmol) [3] of 30.3 pmol. The stimulation of DNA synthesis by Pol III-L on linear polydA-oligodT [3] was 5 fold and 6 fold.
